Measurements taken from patent publication US20240279281A1, “Peptide Inhibitors of Interleukin-23 Receptor” (Janssen Pharmaceutica NV, priority 2023, published 2024).
Starred links: 1 amine or outer side, 2 acyl side, 3 side chain; linkers in the order of their positions; H or OH if unused. Positions of bridges follow the written chain, without caps; N, C: chain ends. Non-standard residues stand in square brackets, D forms with d. No end group written: not given here. X1 = 3‑(7-(3-acetamidophenyl)-1H-indol-3-yl)‑2‑aminopropanoic acid, CC(=O)Nc1cccc(-c2cccc3c(CC(N[*:1])C(=O)[*:2])c[nH]c23)c1; X3 = 4‑(2-(4-(2-amino-2-carboxyethyl)phenoxy)ethyl)‑4‑methylmorpholin‑4‑ium, C[N+]1(CCOc2ccc(CC(N[*:1])C(=O)[*:2])cc2)CCOCC1; X10 = 2‑amino‑3‑(4-(2-guanidinoethoxy)phenyl)propanoic acid, N=C(N)NCCOc1ccc(CC(N[*:1])C(=O)[*:2])cc1; X7 = 2‑amino‑3‑(5-methylpyridin-3-yl)propanoic acid, Cc1cncc(CC(N[*:1])C(=O)[*:2])c1; Trp(7-(3-AcNH-Ph)) = CC(=O)Nc1cccc(-c2cccc3c(C[C@H](N)C(=O)O)c[nH]c23)c1; N‑methyl‑N‑acetyllysine = N-methyl-N-acetyllysine; 2Nal(6-OH) = N[C@@H](Cc1ccc2cc(O)ccc2c1)C(=O)O; Trp(7-Me) = Cc1cccc2c(C[C@H](N)C(=O)O)c[nH]c12; dLys(Me3) = C[N+](C)(C)CCCC[C@@H](N)C(=O)O; 3Pal(5-Me) = Cc1cncc(C[C@H](N)C(=O)O)c1; AEF = NCCOc1ccc(C[C@H](N)C(=O)O)cc1; αMeF = C[C@](N)(Cc1ccccc1)C(=O)O; 3Pal = N[C@@H](Cc1cccnc1)C(=O)O; Pen = CC(C)(S)[C@H](N)C(=O)O; dDab = NCC[C@@H](N)C(=O)O; αMeC = C[C@](N)(CS)C(=O)O; Thp = NC1(C(=O)O)CCOCC1; Abu = CC[C@H](N)C(=O)O; Ahp = NCCCCCCC(=O)O; Sar = CNCC(=O)O

T1: interleukin-23 receptor (IL-23R), Q5VWK5
T1 chain: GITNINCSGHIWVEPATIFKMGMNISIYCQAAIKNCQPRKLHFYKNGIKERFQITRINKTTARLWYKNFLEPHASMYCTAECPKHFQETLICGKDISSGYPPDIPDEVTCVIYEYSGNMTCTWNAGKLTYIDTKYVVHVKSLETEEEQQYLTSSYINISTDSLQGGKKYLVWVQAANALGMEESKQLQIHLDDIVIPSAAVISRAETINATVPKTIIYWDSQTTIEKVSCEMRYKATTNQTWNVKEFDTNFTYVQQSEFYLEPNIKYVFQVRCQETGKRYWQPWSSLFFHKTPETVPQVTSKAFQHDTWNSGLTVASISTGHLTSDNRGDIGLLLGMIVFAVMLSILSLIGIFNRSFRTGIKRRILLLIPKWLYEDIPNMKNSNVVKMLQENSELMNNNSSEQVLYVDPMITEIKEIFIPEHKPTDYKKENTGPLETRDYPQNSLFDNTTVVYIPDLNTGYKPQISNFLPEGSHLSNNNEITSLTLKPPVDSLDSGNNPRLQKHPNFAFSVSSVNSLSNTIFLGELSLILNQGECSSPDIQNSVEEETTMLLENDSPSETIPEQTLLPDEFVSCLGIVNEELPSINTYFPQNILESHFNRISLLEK


Molecular target: T1, interleukin-23 receptor (IL-23R), Q5VWK5
Assay: cell-based or functional assay

Binder	IL23R Reporter Assay IC50 [µM]	PBMC pSTAT3 IC50
R[Pen]NT[Trp(7-Me)]K(Ac)[Pen][AEF][2Nal(6-OH)][Thp]EN[3Pal(5-Me)][Sar] (disulfide 2-7 (inferred); ends not checked) [SEQ ID NO: 51]	< 0.01	
R[Pen]NT[Trp(7-Me)]K(Ac)[Pen][2‑amino‑3‑(4-(2-aminoethoxy)phenyl)propanoic acid][2‑amino‑3‑(6-(2-hydroxyphenyl)naphthalen-2-yl)propanoic acid][Thp]EN[Thp] (not fully specified (bridges); ends and bridges not checked) [SEQ ID NO: 431]	> 0.1	> 1 nM
R[Pen]NT[Trp(7-Me)]K(Ac)[Pen][2‑amino‑3‑(4-(2-aminoethoxy)phenyl)propanoic acid][2‑amino‑3‑(5-methoxynaphthalen-2-yl)propanoic acid][Thp]EN[αMeF] (disulfide 2-7 (inferred); ends not checked) [SEQ ID NO: 437]	> 0.1	> 1 nM
R[Abu]NT[Trp(7-(3-AcNH-Ph))]K(Ac)[αMeC][AEF][2Nal(6-OH)][Thp]EN[3Pal][Sar] (ends and bridges not checked) [SEQ ID NO: 6]	< 0.01	< 0.1 nM
R[Pen]NT[Trp(7-Me)]K(Ac)[Pen][5‑(4-(2-amino-2-carboxyethyl)phenoxy)‑N,N,N‑trimethylpentan‑1‑aminium][2Nal(6-OH)][Thp]K(Ac)N[3Pal][Sar] (disulfide 2-7 (inferred); ends not checked) [SEQ ID NO: 58]	< 0.01	< 0.1 nM
R[Pen]NT[Trp(7-Me)]K(Ac)[Pen][AEF][2Nal(6-OH)][Thp]KN[3Pal][Sar] (not fully specified (residue 11, bridges); ends and bridges not checked; also: K11: lipidated lysine) [SEQ ID NO: 424]	> 0.1	< 1 nM
R[Pen]NT[Trp(7-Me)]K(Ac)[Pen][2‑amino‑3‑(4-(2-aminoethoxy)phenyl)propanoic acid][2‑amino‑3‑(5-methylnaphthalen-2-yl)propanoic acid][Thp]EN[αMeF] (disulfide 2-7 (inferred); ends not checked) [SEQ ID NO: 445]	> 0.1	> 1 nM
[Ahp][Pen]NT[Trp(7-Me)]K(Ac)[Pen][2‑amino‑3‑(4-(2-aminoethoxy)phenyl)propanoic acid][2‑amino‑3‑(6-hydroxynaphthalen-2-yl)propanoic acid][Thp]EN[3Pal][Sar] (disulfide 2-7 (inferred); ends not checked) [SEQ ID NO: 447]	> 0.1	< 1 nM
R[Pen]ET[Trp(7-Me)]K(Ac)[Pen][AEF][2Nal(6-OH)][Thp]K(Ac)N[3Pal][Sar] (not fully specified (bridges); ends and bridges not checked) [SEQ ID NO: 422]	< 0.01	< 10 pM
[dLys(Me3)]CNT[Trp(7-Me)]K(Ac)[αMeC][2‑amino‑3‑(4-(2-aminoethoxy)phenyl)propanoic acid][2‑amino‑3‑(6-hydroxynaphthalen-2-yl)propanoic acid][Thp]EN[3Pal][Sar] (ends and bridges not checked) [SEQ ID NO: 8]	< 0.01	< 10 pM

Second part, the binder after the results:

IL23R Reporter Assay IC50 [µM]	PBMC pSTAT3 IC50	Binder
< 0.01	< 0.1 nM	R[Abu]NTWK(Ac)[αMeC][X10][2Nal(6-OH)][Thp]K(Ac)N[3Pal][Sar] (ends and bridges not checked) [SEQ ID NO: 7]
> 0.1	> 1 nM	R[Pen]QTWQ[Pen][2‑amino‑3‑(4-(2-aminoethoxy)phenyl)propanoic acid][2‑amino‑3‑(6-hydroxynaphthalen-2-yl)propanoic acid][Thp]EN[Thp] (not fully specified (bridges); ends and bridges not checked) [SEQ ID NO: 430]
< 0.01	< 0.1 nM	R[Pen]NT[Trp(7-Me)]K(Ac)[Pen][2‑amino‑3‑(4-(2-aminoethoxy)phenyl)propanoic acid][2‑amino‑3‑(6-hydroxynaphthalen-2-yl)propanoic acid][Thp]EN[2‑amino‑3‑(5-carbamoylpyridin-3-yl)propanoic acid][Sar] (disulfide 2-7 (inferred); ends not checked) [SEQ ID NO: 441]
< 0.01		R[Pen]NT[Trp(7-(3-AcNH-Ph))]K(Ac)[Pen][AEF][2Nal(6-OH)][Thp]EN[3Pal(5-Me)][Sar] (disulfide 2-7 (inferred); ends not checked) [SEQ ID NO: 53]
< 0.01	< 10 pM	[Ahp][Pen]NT[Trp(7-Me)]K(Ac)[Pen][AEF][2Nal(6-OH)][Thp]EN[3Pal][Sar] (not fully specified (bridges); ends and bridges not checked) [SEQ ID NO: 417]
< 0.01		R[Pen]NT[Trp(7-Me)]K(Ac)[Pen][AEF][2Nal(6-OH)][Thp]EN[3Pal(5-Me)][Sar] (disulfide 2-7 (inferred); ends not checked) [SEQ ID NO: 52]
	< 1 nM	R[Pen]NT[Trp(7-Me)]K(Ac)[Pen][AEF][2Nal(6-OH)][Thp]ENH[Sar] (disulfide 2-7 (inferred); ends not checked) [SEQ ID NO: 57]
< 0.01		[dK](Me3)[Pen]NT[Trp(7-Me)]K(Ac)[Pen][2‑amino‑3‑(4-(2-aminoethoxy)phenyl)propanoic acid][2‑amino‑3‑(6-hydroxynaphthalen-2-yl)propanoic acid][Thp]EN[X7][Sar] (disulfide 2-7 (inferred); ends not checked) [SEQ ID NO: 50]
< 0.01	< 10 pM	[Pen]NT[Trp(7-Me)]K(Ac)[Pen][X3][2Nal(6-OH)][Thp]EN[3Pal][Sar] (disulfide 1-6 (inferred); ends not checked) [SEQ ID NO: 56]
< 0.01	< 0.1 nM	[dDab](Ac)[Abu]NTWQC[AEF][2Nal(6-OH)][Thp]CN[3Pal][Sar] (not fully specified (bridges); ends and bridges not checked) [SEQ ID NO: 413]
< 0.01	< 1 nM	[Pen]NT[Trp(7-(3-AcNH-Ph))]K(Ac)[Pen][X3][2Nal(6-OH)][Thp][N‑methyl‑N‑acetyllysine]NH[Sar] (disulfide 1-6 (inferred); ends not checked) [SEQ ID NO: 62]
> 0.1	< 1 nM	R[Pen]NT[Trp(7-Me)]K(Ac)[Pen][2‑amino‑3‑(4-(2-aminoethoxy)phenyl)propanoic acid][2‑amino‑3‑(5-carbamoylnaphthalen-2-yl)propanoic acid][Thp]EN[αMeF] (disulfide 2-7 (inferred); ends not checked) [SEQ ID NO: 439]
< 0.01	> 1 nM	[Pen]NT[X1]K(Ac)[Pen][X10][2‑amino‑3‑(6-hydroxynaphthalen-2-yl)propanoic acid][Thp]EN[3Pal][Sar] (ends and bridges not checked) [SEQ ID NO: 9]
> 0.1	> 1 nM	R[Pen]NT[Trp(7-Me)]K(Ac)[Pen][2‑amino‑3‑(4-(2-aminoethoxy)phenyl)propanoic acid][2‑amino‑3‑(6-hydroxynaphthalen-2-yl)propanoic acid][Thp]ENA[Sar] (not fully specified (bridges); ends and bridges not checked) [SEQ ID NO: 429]
